The values below come from PMC2114742.

Some results are limits rather than exact numbers.

This assay has as its target Turkey gizzard myosin, dephosphorylated (turkey). Briefly: electron microscopy with streptavidin-gold labelling.

For the substance “Turkey gizzard myosin biotinylated with NHS-LC-biotin (complex)”, the percent of the filaments that contained gold particles after 24 h was more than 95%.
